Assays:
Test in all cases: BLI
IL70104 = molecular target: IL70104
IL70095 = molecular target: IL70095
IL70108 = molecular target: IL70108
IL70110 = molecular target: IL70110
IL70106 = molecular target: IL70106
IL70097 = molecular target: IL70097
IL70101 = molecular target: IL70101
IL70092 = molecular target: IL70092
IL70093 = molecular target: IL70093
IL70109 = molecular target: IL70109
IL70094 = molecular target: IL70094
IL70107 = molecular target: IL70107
IL70103 = molecular target: IL70103
IL70096 = molecular target: IL70096
IL70098 = molecular target: IL70098
IL70099 = molecular target: IL70099

B1: human interleukin-7 (huIL-7), biotinylated (ligand)
chain: DCDIEGKDGKQYESVLMVSIDQLLDSMKEIGSNCLNNEFNFFKRHICDANKEGMFLFRAARKLRQFLKMNSTGDFDLHLLKVSEGTTILLNCTGQVKGRKPAALGEAQPTKSLEENKSLKEQKKLNDLCFLKRLLQEIKTCWNKILMGTKEH
modifications: biotin
Kd (IL70104): 2.64 nM | Kd (IL70095): 0.429 nM | Kd (IL70108): 2.55 nM | Kd (IL70110): 0.824 nM | Kd (IL70106): 2.92 nM | Kd (IL70097): 1.79 nM | Kd (IL70101): 1.14 nM | Kd (IL70092): 0.909 nM | Kd (IL70093): 0.525 nM | Kd (IL70109): 1.48 nM | Kd (IL70094): 0.754 nM | Kd (IL70107): 2.94 nM | Kd (IL70103): 0.657 nM | Kd (IL70096): 0.708 nM | Kd (IL70098): 0.52 nM | Kd (IL70099): 1.53 nM

— publication PMC10963267 (2023)
